Measurements: article PMC9763398

Experiments:
DYRK1A = DYRK1A (UniProt Q13627); assay: immunofluorescence co-localisation, confocal overlap index
TGF-β receptor 1 = TGF-β receptor 1 (UniProt P36897); assay: co-immunoprecipitation, western blot; conditions: reference: wild type Hsp90ab1; sites S225,S254

Row | other: average overlap index (DYRK1A; reference: wild type β-catenin, sites T551,S552) | other: average overlap index (DYRK1A; reference: wild type Hsp90ab1, sites S225,S254) | binding against the reference (TGF-β receptor 1) | Substance
1 | weaker; reference 0.8419 | – | – | β-catenin (from UniProt P35222) T551A S552A β-catenin
2 | – | weaker; reference 0.5378 | weaker | Hsp90ab1 (from UniProt P08238) S225A S254A Hsp90ab1
